Data from PMC5636754, “Structural and biochemical characterization of DAXX-ATRX interaction” (Protein & Cell, 2017).

B8: DAXX helical bundle (DHB) domain of death domain-associated protein (DAXX), aa 55-144 (domain or fragment, UniProt Q9UER7 55-144, looked up)
chain: GKKCYKLENEKLFEEFLELCKMQTADHPEVVPFLYNRQQRAHSLFLASAEFCNILSRVLSRARSRPAKLYVYINELCTVLKAHSAKKKLN
notes: Death domain-associated protein (DAXX), DHB domain, residues 55-144; they may stand in the supplementary file; also called DHB_(DAXX); DBH_(DAXX)

Legend:
[1] = molecular target: B8; assay: ITC; DHB_(DAXX) titrated with ATRX fragments or peptides; details: both partners purified
[2] = molecular target: T1, DAXX helical bundle (DHB) domain of death domain-associated protein (DAXX), aa 55-144 (UniProt Q9UER7 55-144); assay: ITC
T1 chain: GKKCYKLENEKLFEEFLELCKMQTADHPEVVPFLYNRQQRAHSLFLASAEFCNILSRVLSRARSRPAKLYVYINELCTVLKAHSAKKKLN

[3] = molecular target: T2, DAXX interaction domain of ATRX (DID_(ATRX)), aa 1,189-1,326 (human, UniProt P46100 1189-1326); assay: ITC; DHB_(DAXX) titrated with ATRX fragments or peptides; details: both partners purified
T2 construct: also called full length DID_(ATRX); ATRX_(1,189–1,326)
T2 sequence (looked up): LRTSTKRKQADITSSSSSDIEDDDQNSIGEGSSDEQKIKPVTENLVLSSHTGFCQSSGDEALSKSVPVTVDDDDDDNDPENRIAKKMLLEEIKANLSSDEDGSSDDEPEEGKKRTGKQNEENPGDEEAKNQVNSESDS

B1: ATRX_(1,265–1,285), α-helix frame only (αDID), wild type peptide (peptide, UniProt P46100 1265-1285, looked up)
peptide: NDPENRIAKKMLLEEIKANLS
notes: the wild type is called 'wild type peptide control'; also called WT
[1]
  Kd: 1 µM

B2: ATRX_(1,265–1,285) D1266N mutant peptide (peptide, UniProt P46100 1265-1285, looked up)
peptide: NNPENRIAKKMLLEEIKANLS
notes: source: synthetic peptide
[1]
  binding result: binds
[2]
  Kd: 7 µM

B3: ATRX_(1,265–1,285) E1268Q mutant peptide (peptide, UniProt P46100 1265-1285, looked up)
peptide: NDPQNRIAKKMLLEEIKANLS
notes: source: synthetic peptide
[1]
  binding result: binds
[2]
  Kd: 5.6 µM

B4: ATRX_(1,265–1,285) E1279Q mutant peptide (peptide, UniProt P46100 1265-1285, looked up)
peptide: NDPENRIAKKMLLEQIKANLS
notes: source: synthetic peptide
[1]
  binding result: binds
[2]
  Kd: 3.2 µM

B5: ATRX_(1,265–1,285) I1280A mutant peptide (peptide, UniProt P46100 1265-1285, looked up)
peptide: NDPENRIAKKMLLEEAKANLS
notes: source: synthetic peptide
[1]
  Kd: 10.9 µM

B6: ATRX_(1,265–1,285) K1273A mutant peptide (peptide, UniProt P46100 1265-1285, looked up)
peptide: NDPENRIAAKMLLEEIKANLS
notes: source: synthetic peptide
[1]
  binding result: binds
[2]
  Kd: 2.3 µM

B7: ATRX_(1,265–1,285) L1277A mutant peptide (peptide, UniProt P46100 1265-1285, looked up)
peptide: NDPENRIAKKMLAEEIKANLS
notes: source: synthetic peptide
[1]
  Kd: 80.6 µM

## B8
[3]
  Kd: 4.5 µM

B9: ATRX_(1,244–1,285), 42-residue loop-helix segment of DID_(ATRX) (domain or fragment, human, UniProt P46100 1244-1285, looked up)
chain: SSGDEALSKSVPVTVDDDDDDNDPENRIAKKMLLEEIKANLS
notes: source: co-expressed with DHB_(DAXX) and purified for the crystal
[1]
  Kd: 0.07 µM

B10: ATRX_(1,259–1,285), minimum ATRX motif of 27 residues (peptide, UniProt P46100 1259-1285, looked up)
peptide: DDDDDDNDPENRIAKKMLLEEIKANLS
notes: begins with the polyD loop 1259-DDDDDD-1264
[1]
  Kd: 0.07 µM
